B1: GR LBD (F602S) 521-777 (receptor)
chain: GSVPATLPQLTPTLVSLLEVIEPEVLYAGYDSSVPDSTWRIMTTLNMLGGRQVIAAVKWAKAIPGFRNLHLDDQMTLLQYSWMSLMAFALGWRSYRQSSANLLCFAPDLIINEQRMTLPCMYDQCKHMLYVSSELHRLQVSYEEYLCMKTLLLLSSVPKDGLKSQELFDEIRMTYIKELGKAIVKREGNSSQNWQRFYQLTKLLDSMHEVVENLLNYCFQTFLDKTMSIEFPEMLAEIITNQIPKYSNGNIKKLLFHQK
notes: also called GR(521-777) F602S; cleaved GR LBD

What was measured:
X-ray crystal structure = target: the molecule itself; test: X-ray crystal structure
GR LBD (F602S) 521-777 = target: B1; test: co-crystallization
Method: The GR/TIF2/DEX crystals were grown at room temperature in hanging drops containing 3.0 ul of the above protein-ligand solutions, and 0.5 ul of well buffer (50 mM HEPES, pH 7.5-8.5 (preferred pH range is 8.0 to 8.5), and 1.7-2.3M ammonium formate). Crystals were also obtained with mixing of the above protein solution and the well buffer at various volume ratios. Crystals appeared overnight and continously grew to a size up to 300 micron within a week. Before data collection, crystals were transiently mixed with the well buffer that contained an additional 25% glycerol, and were then flash frozen in liquid nitrogen.

binding result (GR LBD (F602S) 521-777)	Binder	binding result (X-ray crystal structure)
–	B1	binds
binds	QEPVSPKKKENALLRYLLDKDDTKD (Free peptide used in solution for the stability study and for co-crystallization; No biotin is mentioned for these uses; also called TIF2 peptide; TIF2 fragment) [TIF2 732-756 peptide]	–

Reference: US20050181362A1 (published 2005)
